Data reported in article PMC3851519 (Developmental cell, 2013).

Key:
T7-SOCS7 WT = molecular target: T1, T7-SOCS7 WT (UniProt Q8VHQ2 1-579); experiment: pull-down
T1 sequence (looked up): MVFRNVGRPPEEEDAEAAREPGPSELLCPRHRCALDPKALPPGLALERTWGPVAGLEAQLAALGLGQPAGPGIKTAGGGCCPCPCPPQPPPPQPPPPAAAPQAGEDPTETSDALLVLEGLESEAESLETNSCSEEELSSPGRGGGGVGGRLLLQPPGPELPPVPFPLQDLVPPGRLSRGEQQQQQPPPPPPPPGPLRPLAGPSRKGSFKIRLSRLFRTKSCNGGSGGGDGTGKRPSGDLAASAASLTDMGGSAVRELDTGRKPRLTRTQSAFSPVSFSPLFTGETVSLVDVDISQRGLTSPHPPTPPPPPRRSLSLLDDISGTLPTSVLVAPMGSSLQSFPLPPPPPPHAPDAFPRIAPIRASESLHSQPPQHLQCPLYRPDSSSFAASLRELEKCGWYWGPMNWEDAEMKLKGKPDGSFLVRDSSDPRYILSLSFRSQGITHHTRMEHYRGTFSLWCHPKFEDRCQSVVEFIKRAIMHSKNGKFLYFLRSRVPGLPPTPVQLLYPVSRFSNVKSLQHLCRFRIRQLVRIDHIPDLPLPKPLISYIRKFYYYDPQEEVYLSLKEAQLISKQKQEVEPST

T7-SOCS6 = molecular target: T2, T7-SOCS6 (UniProt Q9JLY0 1-533); experiment: pull-down
T2 sequence (looked up): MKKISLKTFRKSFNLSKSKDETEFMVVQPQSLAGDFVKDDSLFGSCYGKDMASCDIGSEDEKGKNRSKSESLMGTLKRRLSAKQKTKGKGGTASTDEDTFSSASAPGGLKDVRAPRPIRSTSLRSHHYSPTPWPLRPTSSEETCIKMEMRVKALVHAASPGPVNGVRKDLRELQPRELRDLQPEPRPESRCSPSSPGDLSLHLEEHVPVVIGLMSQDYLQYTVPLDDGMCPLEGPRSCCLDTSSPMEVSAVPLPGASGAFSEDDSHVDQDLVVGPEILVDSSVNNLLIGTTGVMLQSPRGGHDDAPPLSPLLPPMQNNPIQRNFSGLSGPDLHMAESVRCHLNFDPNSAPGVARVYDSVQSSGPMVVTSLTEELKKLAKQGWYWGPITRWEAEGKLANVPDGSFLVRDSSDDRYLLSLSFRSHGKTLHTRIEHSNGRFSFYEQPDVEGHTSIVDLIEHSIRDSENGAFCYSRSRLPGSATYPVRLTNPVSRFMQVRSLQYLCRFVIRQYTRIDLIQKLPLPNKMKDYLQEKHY

B1: tyrosine-phosphorylated Dab1-EGFP (natural protein, UniProt P97318 1-588, looked up)
chain: MSTETELQVAVKTSAKKDSRKKGQDRSEATLIKRFKGEGVRYKAKLIGIDEVSAARGDKLCQDSMMKLKGVVAGARSKGEHKQKIFLTISFGGIKIFDEKTGALQHHHAVHEISYIAKDITDHRAFGYVCGKEGNHRFVAIKTAQAAEPVILDLRDLFQLIYELKQREELEKKAQKDKQCEQAVYQTILEEDVEDPVYQYIVFEAGHEPIRDPETEENIYQVPTSQKKEGVYDVPKSQPNSQPLEDFESRFAAATPNRNLSMDFDELLEATKVSAVTQLELFGDMSTPPDITSPPTPATPGDAFLPSSSQTLPGSADVFGSMSFGTAAVPSGYVAMGAVLPSFWGQQPLVQQQIAMGAQPPVAQVIPGAQPIAWGQPGLFPATQQAWPTVAGQFPPAAFMPTQTVMPLAAAMFQGPLTPLATVPGTNDSARSSPQSDKPRQKMGKESFKDFQMVQPPPVPSRKPDQPSLTCTSEAFSSYFNKVGVAQDTDDCDDFDISQLNLTPVTSTTPSTNSPPTPAPRQSSPSKSSASHVSDPTADDIFEEGFESPSKSEEQEAPDGSQASSTSDPFGEPSGEPSGDNISPQDGS
modifications: phosphotyrosine (sites not given; phosphorylated by co-transfected Fyn)
fold pY.Dab1 bound against SOCS4, 5 or CISH (T7-SOCS7 WT): ~10 fold
fold pY.Dab1 bound against SOCS4, 5 or CISH (T7-SOCS6): ~10 fold
